Target: T1, Kap114p (S. cerevisiae, UniProt P53067 1-1004)
T1 sequence (looked up): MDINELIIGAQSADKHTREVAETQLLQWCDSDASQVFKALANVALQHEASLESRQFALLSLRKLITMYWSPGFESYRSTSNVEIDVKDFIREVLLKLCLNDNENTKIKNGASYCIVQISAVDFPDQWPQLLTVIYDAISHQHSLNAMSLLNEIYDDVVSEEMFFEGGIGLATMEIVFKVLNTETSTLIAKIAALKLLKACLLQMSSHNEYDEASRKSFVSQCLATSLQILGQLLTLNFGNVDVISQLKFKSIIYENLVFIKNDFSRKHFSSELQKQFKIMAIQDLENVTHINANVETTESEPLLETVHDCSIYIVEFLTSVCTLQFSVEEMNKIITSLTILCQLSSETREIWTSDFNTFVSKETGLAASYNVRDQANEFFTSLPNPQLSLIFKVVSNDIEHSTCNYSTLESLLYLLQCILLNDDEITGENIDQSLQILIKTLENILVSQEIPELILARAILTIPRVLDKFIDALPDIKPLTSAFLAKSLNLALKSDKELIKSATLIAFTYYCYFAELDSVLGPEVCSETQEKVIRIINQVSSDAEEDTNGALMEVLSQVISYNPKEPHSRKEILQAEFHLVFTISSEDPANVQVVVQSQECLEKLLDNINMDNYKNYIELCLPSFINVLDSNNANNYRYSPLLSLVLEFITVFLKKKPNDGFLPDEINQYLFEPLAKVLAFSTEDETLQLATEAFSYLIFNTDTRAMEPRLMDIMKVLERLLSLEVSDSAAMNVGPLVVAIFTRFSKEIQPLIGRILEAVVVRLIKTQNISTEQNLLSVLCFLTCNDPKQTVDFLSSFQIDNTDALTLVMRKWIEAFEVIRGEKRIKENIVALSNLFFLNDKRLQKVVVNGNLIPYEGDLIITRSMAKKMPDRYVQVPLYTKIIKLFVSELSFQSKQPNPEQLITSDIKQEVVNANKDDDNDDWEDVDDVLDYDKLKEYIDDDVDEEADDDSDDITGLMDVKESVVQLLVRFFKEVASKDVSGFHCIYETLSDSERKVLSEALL
Assay: AUC

B1: yTBP (61-240) (domain or fragment, S. cerevisiae, UniProt P13393 61-240, looked up)
chain: SGIVPTLQNIVATVTLGCRLDLKTVALHARNAEYNPKRFAAVIMRIREPKTTALIFASGKMVVTGAKSEDDSKLASRKYARIIQKIGFAAKFTDFKIQNIVGSCDVKFPIRLEGLAFSHGTFSSYEPELFPGLIYRMVKPKIVLLIFVSGKIVLTGAKQREEIYQAFEAIYPVLSEFRKM
B1 was tested, and the “stoichiometry N” value was 1.
